Measured values as given in PMC10112281.
Like-named read-outs stand apart in the source and are kept apart here. Each block holds one molecule with its values, some of them ahead of it. Where no end group is shown, it is not given here.

What was measured:
[1] = target: FIP200 CLAW domain (Homo sapiens) (UniProt Q8TDY2); settings: cited from earlier work
[2] = target: FIP200 CLAW domain (Homo sapiens) (UniProt Q8TDY2); settings: cited from earlier work; remark: listed apart in the source
[3] = target: recombinant His6-TEV-FIP200-CLAW domain; experiment: fluorescence polarisation
[4] = target: T1, FITC-labeled TNIP1 FIR peptide, pS122; experiment: fluorescence polarisation
T1 chain: SSGTSSEFEVVTPEE

[5] = target: T2, FITC-labeled TNIP1 FIR peptide, pS123; experiment: fluorescence polarisation
T2 chain: SSGTSSEFEVVTPEE

[6] = target: T3, FITC-labeled TNIP1 FIR peptide, unmodified; experiment: fluorescence polarisation
T3 chain: SSGTSSEFEVVTPEE

Molecule: OPTN (from UniProt Q96CV9)
Kd [1]: 306 µM

Molecule: OPTN phosphorylated (from UniProt Q96CV9)
Kd [2]: 11.5 µM

Continued, values first:

IC50 [3]: 70.2 µM
Molecule: SSGTSSEFEVVTPEE (also: phosphoserine pS123, place not mapped) [unlabeled TNIP1 pS123 peptide]

Kd [4]: 9.7 µM
Kd [5]: 3.27 µM
Kd [6]: 46 µM
B1: recombinant His6-TEV-FIP200-CLAW domain (domain or fragment)
chain: SRHSEKIAIRDFQVGDLVLIILDERHDNYVLFTVSPTLYFLHSESLPALDLKPGEGASGASRRPWVLGKVMEKEYCQAKKAQNRFKVPLGTKFYRVKAVSWNKKV
modifications: not checked
